According to PMC5371579, “Expression of a new laccase from Moniliophthora roreri at high levels in Pichia pastoris and its potential application in micropollutant degradation” (AMB Express, 2017):

Experiments:
Assay in all cases: purified protein
Type in all cases: biochemical, Moniliophthora roreri
purified protein [1] = substrate: CCn1c(=NN=c2sc3cc(S(=O)(=O)O)ccc3n2CC)sc2cc(S(=O)(=O)O)ccc21; conditions: 100 mM citrate phosphate buffer at optimal pH (pH 2 stated for ABTS)
purified protein [2] = substrate: COc1cc(C=NN=Cc2cc(OC)c(O)c(OC)c2)cc(OC)c1O; conditions: 100 mM citrate phosphate buffer, pH 4 (optimum)
purified protein [3] = substrate: COc1cccc(OC)c1O; conditions: 100 mM citrate phosphate buffer, pH 4 (optimum)
purified protein [4] = substrate: COc1ccccc1O; conditions: 100 mM citrate phosphate buffer, pH 5 (optimum)

B1: Mrl2 (Moniliophthora roreri MCA 2997) (protein)
chain: SIGPIADLVISNQDVSPDGFTRSAVVAGGDTIGPLIVGNKNDNLQINVVNNLDDDTMLQSTSIHWHGFFQQSTNWADGTAFVNQCPIAKGNSFLYDFDATDQAGTFWYHSHLSTQYCDGLRGPIVIYDPDDPHASLYDVDDESTVITLADWYHTKAKEITFGTPDSTLINGLGRWSQGNETDLSVITVTSGQRYRMRLINTACDAAYTFSIDNHTMTVIEADAVNIEPIEVDSLTIYAGQRYSFVLNADQAVGNYWIRANPNIGTMGYTNGINSAILRYDTAEEEEPDVLDITSTNSLSEADLVPLENPGAPGDPVVGGVDYALHLDFAFTSAATFTVNDATFVPPTVPVLLQILSGAQTADTLLPSGSVVALPSNSTIELSMTGGLLGLEHPIHLHGHNFDVVRVAGSTEYNYENPIRRDVVNAGSTSDNVTIRFTTDNPGPWILHCHIDWHLEAGFAIVFAEATDEWVDTIDPSDAWENLCPTYDALSDDDL
notes: native signal peptide replaced by S. cerevisiae alpha-factor leader (Kex2 cleavage; mature N-terminus SIGPI from primer); no tag (stop codon in reverse primer); codon-optimized gene; secreted from Pichia pastoris X-33, DEAE-purified, glycosylated (~90 kDa; calculated 54 kDa); EC 1.10.3.2
Work on B1 yielded a Km (purified protein [1]) of 24.13 ± 1.9 µM, a kcat (purified protein [1]) of 316 s⁻¹ and a kcat/Km (purified protein [1]) of 1.31e+07 M⁻¹ s⁻¹. The Km (purified protein [2]) was 12.45 ± 1.6 µM, the kcat (purified protein [2]) was 21 s⁻¹ and the kcat/Km (purified protein [2]) was 1.68e+06 M⁻¹ s⁻¹. For the same protein, the Km (purified protein [3]) was 358 ± 58.5 µM, the kcat (purified protein [3]) was 74 s⁻¹ and the kcat/Km (purified protein [3]) was 207000 M⁻¹ s⁻¹. It also gave a Km (purified protein [4]) of 2235 ± 117.5 µM, a kcat (purified protein [4]) of 37 s⁻¹ and a kcat/Km (purified protein [4]) of 16000 M⁻¹ s⁻¹.
